Experimental data published in patent EP2415863A1, “Mutant glucose oxidase” (B.R.A.I.N., priority 2010, dated 2012).

Columns and labels:
Assay type in all cases: biochemical, Aspergillus niger
[1] = substrate: OC[C@H]1OC(O)[C@H](O)[C@@H](O)[C@@H]1O; test: Kinetic constants by ABTS assay, wt GOx; settings: other: wt GOx, 2.5-100 mM glucose
Description: (§1) For detection of GOx activity the ABTS assay was used. 2,2'-azino-bis(3-ethylbenzthiazoline-6-sulphonic acid (ABTS) is commonly used as a substrate with hydrogen peroxide for a peroxidase generating enzyme. Its use allows the reaction kinetics of peroxidases to be followed, to indirectly follow the reaction kinetics of a hydrogen peroxide-producing enzyme or to quantify the amount of hydrogen peroxide in a sample [vanGijlswijk, R.P.M., et al., Fluorochrome-labeled tyramides: Use in immunocytochemistry and fluorescence in situ hybridization. Journal of Histochemistry & Cytochemistry, 1997. 45(3): p. 375-382].
(§2) The kinetic constants were determined using the Specord 200 from (Analytik Jena, Germany) and the ABTS assay [Zhu, Z.W., et al. 2006, Making glucose oxidase fit for biofuel cell applications by directed protein evolution. Biosensors & Bioelectronics, 21(11): 2046-2051]. The measurements were performed in 1 ml of reaction volume and 1 cm light pathway cuvettes, using 2.5, 5, 10, 25, 50 and 100 mM glucose. The data were fitted using Origin 6 (OriginLab Corporation, Northampton).

[2] = substrate: OC[C@H]1OC(O)[C@H](O)[C@@H](O)[C@@H]1O; test: Kinetic constants by ABTS assay, GOx mutant M12; settings: other: M12, 2.5-100 mM glucose
Description: as §1, §2

[3] = substrate: OC[C@H]1OC(O)[C@H](O)[C@@H](O)[C@@H]1O; test: Kinetic constants by ABTS assay, parent GOx B11; settings: other: Parent GOx (B11), 2.5-100 mM glucose
Description: as §1, §2

B1: Aspergillus niger glucose oxidase (GOx), wild type, SEQ ID NO: 3 (Aspergillus niger) (protein)
chain: SNGIEASLLTDPKDVSGRTVDYIIAGGGLTGLTTAARLTENPNISVLVIESGSYESDRGPIIEDLNAYGDIFGSSVDHAYETVELATNNQTALIRSGNGLGGSTLVNGGTWTRPHKAQVDSWETVFGNEGWNWDNVAAYSLQAERARAPNAKQIAAGHYFNASCHGVNGTVHAGPRDTGDDYSPIVKALMSAVEDRGVPTKKDFGCGDPHGVSMFPNTLHEDQVRSDAAREWLLPNYQRPNLQVLTGQYVGKVLLSQNGTTPRAVGVEFGTHKGNTHNVYAKHEVLLAAGSAVSPTILEYSGIGMKSILEPLGIDTVVDLPVGLNLQDQTTATVRSRITSAGAGQGQAAWFATFNETFGDYSEKAHELLNTKLEQWAEEAVARGGFHNTTALLIQYENYRDWIVNHNVAYSELFLDTAGVASFDVWDLLPFTRGYVHILDKDPYLHHFAYDPQYFLNELDLLGQAAATQLARNISNSGAMQTYFAGETIPGDNLAYDADLSAWTEYIPYHFRPNYHGVGTCSMMPKEMGGVVDNAARVYGVQGLRVIDGSIPPTQMSSHVMTVFYAMALKISDAILEDYASMQ
notes: made in house; host or cells: Saccharomyces cerevisiae (pYES2 vector)
Work on B1 yielded a Km [1] of 22.0 mM mM.

B2: Aspergillus niger glucose oxidase (GOx) variant M12, N2Y, K13E, T30V, I94V, K152R, SEQ ID NO: 1 (Aspergillus niger; I116V/K174R/K35E/N24Y/T52V) (protein)
chain: SYGIEASLLTDPEDVSGRTVDYIIAGGGLVGLTTAARLTENPNISVLVIESGSYESDRGPIIEDLNAYGDIFGSSVDHAYETVELATNNQTALVRSGNGLGGSTLVNGGTWTRPHKAQVDSWETVFGNEGWNWDNVAAYSLQAERARAPNARQIAAGHYFNASCHGVNGTVHAGPRDTGDDYSPIVKALMSAVEDRGVPTKKDFGCGDPHGVSMFPNTLHEDQVRSDAAREWLLPNYQRPNLQVLTGQYVGKVLLSQNGTTPRAVGVEFGTHKGNTHNVYAKHEVLLAAGSAVSPTILEYSGIGMKSILEPLGIDTVVDLPVGLNLQDQTTATVRSRITSAGAGQGQAAWFATFNETFGDYSEKAHELLNTKLEQWAEEAVARGGFHNTTALLIQYENYRDWIVNHNVAYSELFLDTAGVASFDVWDLLPFTRGYVHILDKDPYLHHFAYDPQYFLNELDLLGQAAATQLARNISNSGAMQTYFAGETIPGDNLAYDADLSAWTEYIPYHFRPNYHGVGTCSMMPKEMGGVVDNAARVYGVQGLRVIDGSIPPTQMSSHVMTVFYAMALKISDAILEDYASMQ
notes: made in house; host or cells: Saccharomyces cerevisiae (pYES2)
In the case of B2, the Km [2] is reported as 18.1 mM mM and the kcat [2] is reported as 150 s-1 s-1.

B3: Aspergillus niger glucose oxidase (GOx) parent mutant B11, T30V, I94V, SEQ ID NO: 5 (Aspergillus niger; I116V/T52V) (protein)
chain: SNGIEASLLTDPKDVSGRTVDYIIAGGGLVGLTTAARLTENPNISVLVIESGSYESDRGPIIEDLNAYGDIFGSSVDHAYETVELATNNQTALVRSGNGLGGSTLVNGGTWTRPHKAQVDSWETVFGNEGWNWDNVAAYSLQAERARAPNAKQIAAGHYFNASCHGVNGTVHAGPRDTGDDYSPIVKALMSAVEDRGVPTKKDFGCGDPHGVSMFPNTLHEDQVRSDAAREWLLPNYQRPNLQVLTGQYVGKVLLSQNGTTPRAVGVEFGTHKGNTHNVYAKHEVLLAAGSAVSPTILEYSGIGMKSILEPLGIDTVVDLPVGLNLQDQTTATVRSRITSAGAGQGQAAWFATFNETFGDYSEKAHELLNTKLEQWAEEAVARGGFHNTTALLIQYENYRDWIVNHNVAYSELFLDTAGVASFDVWDLLPFTRGYVHILDKDPYLHHFAYDPQYFLNELDLLGQAAATQLARNISNSGAMQTYFAGETIPGDNLAYDADLSAWTEYIPYHFRPNYHGVGTCSMMPKEMGGVVDNAARVYGVQGLRVIDGSIPPTQMSSHVMTVFYAMALKISDAILEDYASMQ
notes: made in house; host or cells: Saccharomyces cerevisiae (pYES2 plasmid B11 GOx)
In the case of B3, the Km [3] is reported as 16.0 mM mM and the kcat [3] is reported as 80.0 S-^1 S-^1.
